These results are taken from the RNAGym collection of RNA variant scans (doi:10.1073/pnas.2313332121).

First the molecules themselves.
B1: TPR t1 (parent)
chain: GACCAAUCUGCCCUCAGAGCUCGAGAACAUCUUCGGAUGCAGAGGAGGCAGGCUUCGGUGGCGCGAUAGCGCCAACGUCCUCAACCUCCAAUGCAUCCCACCACAUGAUGAUGCCUGAAGAGCCUUGGUUUUUUG

The variants in this data set derive from B1. Put plainly: polymerase ribozyme fitness, log enrichment relative to wild type (log ratio); higher = more active; in vitro selection for triplet polymerase activity. In outline:
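Only genotypes with ≥10 input reads and ≥1 read per output were kept after Illumina sequencing of input and output libraries. These libraries were PCR-built, transcribed mutants of each subunit of a heterodimeric triplet polymerase ribozyme, each put through one triplicate in vitro selection round with frozen incubation at −7 °C, gel excision of extended constructs, streptavidin-bead capture and RT-PCR. Fitness is a logarithmic ratio of genotype enrichment to wild-type enrichment, from inverse-variance-weighted replicate averages, with the logarithm in base 2.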
GACCAAUCUGCCCUCAGAGCUCGAGAACAUCUUCGGAUGCAGAGGAGGCAGGCUUCGGUGGCGCGAUAGCGCCAACGUGCUCAACCUCCAAUGCAUCCCACCACAUGAUGAUGCCUGAAGAGCCUUGGUUGUUUG: the “polymerase ribozyme fitness (log ratio)” value was -1.06. To GACCAAUCUGCCAUCAGAGCUCGAGAACAUCUUCGGAUGCAGAGGAGGCAGGCUUUGGAGGCGCGAUAGCGCCAACGUCCUCAACCUCCAAUGCAUCCCACCACAUGAUGAUGCCUGAAGAGCCUUGGUUUUUUG belongs -2.77. To GACCAAUCUGCCCUCAGAGCUCGAGAACAUCUUCGGAUGCAGAGGAGGCAGGCUUCGGUGGCGCGAUAGCGCCAACGUCCUCAACCUCCUAUGCAUCCCACCACAUGAUGAUGGCUGGAGAGCCUUGGUUUUUUG belongs -3.15; to GACCAAUCUGCCCUCAGAGCUCGAGAACAUCUUCGGAUGCAGAGGAGGCAGGCUUCGGUUGCGCGAUAGCGCCAACGUCCUCAUCCUCCAAUGCAUCCCACAACAUGAUGAUGCCUGAAGAGCCUUGGUUUUUGG, -2.03; to GACCCAUCUGCCCUCAGAGCUCGAGAACAUCUUCGGAUGCAGAGGAGACAGGCUUCGGUGGCGCGAUAGCGCCAACGUCCUGAACCUCCAAUGCAUCCCACCACAUGAUGAUGCCUGAAGAGCCUUGGUUUUUUG, -1.18. For GACCAAUCUGCCCUCAGAGCUCGAUAACAUCUUCGGAUGCAGAGGAGGCAGGCUUCGGUGGCGCGAUAUCGCCAACGUCCUCAACCUCCAAUGCAUCCCACCACAUGAUGAUGCCUGAAGAGCCUUGGUUUUUUG, the “polymerase ribozyme fitness (log ratio)” value is -4.36. To GACCAAUCUGCCCUCAGAGCUCGAGAACAUCUUCGGAUGCAGAGGAGGCAGGUUUCGGUGGCGCGAUAGGGCCAACGUCCUCAACCUCCAAUGCAUCCCACCACAUGAUGAUGCCUGAAGAGCCUUGGUUUUUUG belongs -4.36; to GACCAAUCUGCCCUCCGAGCUCGAGAACAUCUUCGGAUGCAGAGGAGGCAGGCUUCGGUGGCGCGAUAGCGCCAACGUCCUCAACCUCCAAUGCAUCUCACCACAUGAUAAUGCCUGAAGAGCAUUGGUUUUUUG, -4.72. In the case of GACCAAUCUGCCCUCAGAGCUCGAGAACAUCUUCGGAUGCAGAGGAGGCAGGCUUCGGUGGCGCGAUAGCGCCAACGUCCUCAACCUCCAAUGCAUCCCACCACAUGAUGAUGCUUGAAGAGCCUUGGUUUUAUG it was -0.794; in that of GACCAAUCUGCCCUCAGAGCUCGAGAACAUCUUCGGAUGCAGAGGAGGCAGGCUUCGGUGGCGCGAUAGCGCCAACGUCCUCAACCUCCAAUACAUCCCAUCACAUGAUGAUGCCUGAAGAGCCUUGGUUUUUUG, -1.15. Consider GACCAAUCUGCGCUCAGAGCUCGAGAACAUCUUCGGAUGCAGAGGAGGCAGGCUUCGGUGGUGCGAUAGCGCCACCGUCCUCAACCUCCAAUGCAUCCCACCACAUGGUGAUGCCUGAAGAGCCUUGGUUUUUUG, for which the “polymerase ribozyme fitness (log ratio)” value was -2.34.

With GACCAAUCUGCCCUCAGAGAUCGAGAACAUCUUCGGAUGCAGAGGAGGCAGGCUUCGGUGGCCCGAUAGCGCCAACGUCCUCAACCUCCAAUGCAUCCCACCACAUGAUGAUGCCUGAAGAGCCUUGGUUUUUUG, the “polymerase ribozyme fitness (log ratio)” value was -3.31. Take GACCAAUCUGCCCUCAGAGCUCGAGGACAUCUUCGGAUGCAGAGAAGGCAGGCUUCGGUGGCGCGAUAGCGCCAACGUCCUCAACCUCCAAUGCAUCCCACCACAUGAUGAUGCCUGAAGAGCCUUGGUUUUUUG: the “polymerase ribozyme fitness (log ratio)” value was -2.64. To GACAAAUCUGCCCUCUGAGCUCGAGAACAUCUUCGGAUGCAGAGGAGGCAGGCUUCGGUGGCGCGAUAGCGUCAACGUCCUCAACCUCCAAUGCCUCCCACCACAUGAUGAUGCCUGAAGAGCCUUGGUUUUUUG belongs -3.63; to GACCAAUCUGCCCUUAGAGCUCGAGAACAUCUUCGGAUGCAGAGGAGGCAGGCUUCGGUGGCGCGAUAGCGGCAACGUCCUCAACCUCCAAUGCAUCCCACCACAUGAUGAUGCCUGAAGAGCCUUGGUUUUUUG, -1.64; to GACCAAUCUGCCAUCAGAGUUCGAGAACAUCUUCGGAUGCAGAGGAGGCAGGCUUCGGUGUCGCGAUAGCGUCAACGUCCUCAACCUCCAAUGCAUCCCACCACAUGAUGAUGCCUGAAGAGCCUUGGUUUUUUG, -3.24. Consider GACCAAUCUGCCGUCAGAGCUCGAGAACAUCUUCGCAUGUAGAGGAGGCAGGCUUCGGUGGCGCGAUAGCGCCAACGUCCUCAACCUCCAAUGCAUCCCACCACAUGAUGAUGCCUGAAGAGCCUUGGUUUUUUG, for which the “polymerase ribozyme fitness (log ratio)” value is -2.55. Consider GACCAAUCUGCCCUGAGAGCUCGAGAACAUCUUCGGAUGCAGAGGAUGCAGGCUCCGGUGGCGCGAUAGCGCCAACGCCCUUAACAUCCAAUGCAUCCCACCACAUGAUGAUGCCUGAAUAGCCUUGGUUUUUUG, for which the “polymerase ribozyme fitness (log ratio)” value is -2.18. In the case of GACCAAUCUGCCCUCAGAGCUCGAGAACAUCUUCGGAUGCAGAGGAGGCAGGCAUCCGUGGCGCGAUAGCGCCAACGUCCUCAACCUCCGAUGCAUCCCACCACAUGAUGAUGUCUGAAGAGCCUUGGUUUAUUG it was -2.18; in that of GACCAAUCUGCCCUCAUAGUUCGAGAACAUCUUCGGAUGCAGAGGAGGAAGGCUUCGGUGGCGCGAUAGCGCGAACGUCCUCAACCUCCAAUGCAUCCCACCACAUGAUGAUGCAUGAAGAGCCUUGGUUUUUUG, -1.32; in that of GACCAAUCUGCCCUCAGAGCUCGAGAACAUCUUCGGAUGCAGAGGCGGCAGGAUUCGGUGGCGCGAUAGCGACAACGUCCUCAACAUCCAAUGCAUCCCACCACAUGAUGAUGCCUGAAGAGCGUUGGUUUUUUG, 0.771.
